Source: US20250340661A1, “ANTI CD40 ANTIBODY, ANTIGEN BINDING FRAGMENT AND MEDICAL USE THEREOF” (Jiangsu Hengrui Pharmaceuticals Co., Ltd., priority 2021, published 2025)

Columns and labels:
CD40 [1] = target: T1, CD40 (Homo sapiens, UniProt P25942); assay: HEK-Blue CD40L reporter gene cell activity of human-rabbit chimeric anti-CD40 antibodies; type: cell-based; design: host or cells: HEK-Blue CD40L cells; conditions: HEK-Blue CD40L cells, 25 ng/mL CD40L + anti-His antibody
Procedure: HEK-Blue CD40L cells were purchased from Invivogen (Cat. #hkb-cd40). The cells were stably transfected with the human CD40 gene and the NF-kB-mediated SEAP genome. The activation level of the CD40 signaling pathway can be characterized by detecting the secreted SEAP in the supernatant using QUANTI-Blue, the substrate of SEAP. In this experiment, the in vitro antagonist activity of anti-CD40 antibodies was assessed according to IC50 by detecting the activation of HEK-Blue CD40L cells by CD40L. HEK-Blue CD40L cells were cultured in a DMEM medium containing 10% FBS, 100 μg/mL Zeocin and 30 μg/mL Blasticidin and passaged 2-3 times in a week at a ratio of 1:5 or 1:10. During passaging, the medium was pipetted off, and the cell layer was rinsed with 5 mL of 0.25% pancreatin. Then the pancreatin was pipetted off, the cells were digested in an incubator for 3-5 min, and then a fresh medium was added to resuspend cells. 100 μL of cell suspension was added to a 96-well cell culture plate at a density of […]. The medium was DMEM containing 10% FBS, 100 μg/mL Zeocin and 30 μg/mL Blasticidin. Only 100 μL of sterile water was added to the periphery of the 96-well plate. […] The absorbance at 630 nm was measured with a microplate reader (Thermo MultiSkanFc), and IC50 values were calculated and used to assess the in vitro cell activity of the anti-CD40 antibodies.
Target sequence in this assay (P25942 21-277): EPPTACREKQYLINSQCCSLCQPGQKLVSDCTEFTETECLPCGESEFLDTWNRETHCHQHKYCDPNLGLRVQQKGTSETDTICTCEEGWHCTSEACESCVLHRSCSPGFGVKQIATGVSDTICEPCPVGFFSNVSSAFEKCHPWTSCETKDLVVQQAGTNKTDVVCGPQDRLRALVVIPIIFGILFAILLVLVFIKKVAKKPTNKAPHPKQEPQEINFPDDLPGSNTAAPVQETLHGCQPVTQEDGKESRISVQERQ

CD40 [2] = target: T1, CD40; assay: B cell activation assay system (human PBMCs, CD40L stimulation); type: cell-based; design: endogenous in cells; host or cells: human PBMCs (CD19+ B cells read out); conditions: CD40L-his + anti-His overnight
Procedure: CD40 is highly expressed in B cells, and CD40L, upon binding to CD40, can induce B cell activation and up-regulate the expression of a series of activation markers. CD40 antagonistic antibodies block the binding of CD40L to CD40, thereby eliminating the immune activation process of B cells.
Human PBMCs were plated at 2E5/well, 50 μL/well into a 96-well cell culture plate (the medium was RPMI-1640, 10% FBS, 1% penicillin-streptomycin). Serially diluted test antibodies were added at 50 μL/well, and the cells were co-incubated at 37° C. in 5% CO2 for 0.5 h. CD40L-his and an anti-His antibody were added to each well for overnight stimulation. The following day, the plate was centrifuged, the supernatant was removed, and the cells were washed twice with FACS buffer and stained at room temperature for 15 min with 100 μL of Fixable viability dye EF780 (Invitrogen, 65086514) diluted at 1:1000. The cells were washed twice and then blocked at room temperature for 10 min with 100 μL of human Fc blocker (BD, 564220) diluted at 1:200. After centrifugation, the cells were incubated at 4° C. for 0.5 h with flow cytometry antibodies (PerCP/Cyanine5.5 anti-human CD19 (Biolegend, 302230), and APC anti-human CD69 (Biolegend, 310910)) diluted at 1:200. After centrifugation, the supernatant was removed, the cells were washed twice with FACS buffer and then resuspended in 200 μL of PBS, and the fluorescence intensity on the cell surface was measured by flow cytometry (BD FACS Celesta).
With reference to the method in Example 10, the inhibitory activity of the anti-CD40 antibodies 2F12-L4H2-AAYTE and 9E6-L4H2-AAYTE, which carry the AAYTE mutation in the Fc, in the B cell activation assay system was measured.
Target sequence in this assay (P25942 21-277): as above

CD40 [3] = target: T1, CD40; assay: SPR (Biacore) affinity for human CD40; type: binding; design: h-CD40-his; Glu21-Arg193; P25942-1; His; purchased Acrobiosystems Inc. CD0-H5228; conditions: Human CD40 as mobile phase, antibody captured
Procedure: The test antibody was affinity-captured on an anti-human Fc chip, and a series of concentrations of His-tagged human or cynomolgus monkey CD40 antigen were allowed to flow over the chip surface. Reaction signals were detected in real time using a Biacore instrument, and thus binding and dissociation curves were obtained. The buffer used in the experiment was HBS-EP+10× buffer solution (Cat. #BR-1006-69, GE) diluted to 1× (pH 7.4) with D. I. Water. Fitting was performed on the data obtained from the experiment using a (1:1) Binding model to obtain affinity values. 9E6-L4H2 and 2F12-L4H2 have similar binding constants for human CD40 to CFZ533, 9E6-L4H2 has a stronger binding affinity for cynomolgus monkey CD40, and 2F12-L4H2 has a slightly weak binding affinity for cynomolgus monkey CD40.
Target sequence in this assay (P25942 21-193): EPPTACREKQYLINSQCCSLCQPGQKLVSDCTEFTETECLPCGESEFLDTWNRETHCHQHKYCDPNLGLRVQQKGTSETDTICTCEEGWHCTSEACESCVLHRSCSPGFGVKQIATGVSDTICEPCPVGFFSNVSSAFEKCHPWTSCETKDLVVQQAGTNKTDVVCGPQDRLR

CFZ533: anti-CD40 antagonistic antibody (iscalimab), positive control; variable regions from U.S. Pat. No. 8,277,810B [reference compound]
IC50 (CD40 [1]): 0.272 nM
CD19+CD69+ % Maximum inhibition rate (CD40 [2]): 95%
CD19+CD69+ MFI Maximum inhibition rate (CD40 [2]): 110%
IC50 (CD40 [2]; read-out: CD19+CD69+ % IC50): 0.14 nM
IC50 (CD40 [2]; read-out: CD19+CD69+ MFI IC50): 0.07 nM
Ka (CD40 [3]): 688000 M⁻¹ s⁻¹
